B1: bovine Ric8A1–492 [bovine] / Gαt333–350 [modified: biotin on the N-terminus (in the BLI assays); biotin on the N-terminus (in the BLI assays)] [not stated] (parent)
chain 1: MEPRAVADALETGEEDVVMEALRAYNRENSQSFTFDDAQQEDRKRLAKLLVSVLEQGLPPSRRVIWLQSIRILSRDRSCLDSFTSRRSLQALACYAGISASQGSVPEPLNMDVVLESLKCLCNLVLSSPVAQALAAEAGLVVRLAERVGLCRQSSFPHDVQFFDLRLLFLLTALRTDVRQQLFQELQGVRLLTRALELTLGMTEGERHPELLPPQETERAMEILKVLFNITFDSIKREVDEEDAALYRHLGTLLRHCVMLAAAGDRTEELHGHAVNLLGNLPVKCLDVLLTLEPHEGSLEFLGVNMDVIRVLLSFMEKRLHQTHRLKESVAPVLSVLTECARMHRPARKFLKAQVLPPLRDVRTRPEVGELLRNKLVRLMTHLDTDVKRVAAEFLFVLCSESVPRFIKYTGYGNAAGLLAARGLMAGGRPEGQYSEDEDTDTDEYKEAKASINPVTGRVEEKPPNPMEGMTEEQKEHEAMKLVNMFDKLSRH
chain 2: DAVTDIIIKENLKDCGLF

Legend:
[1] = variants of: B1; experiment: BLI (steady-state); details: with Gαt333–350 [modified: biotin on the N-terminus (in the BLI assays)
[2] = variants of: B1; experiment: BLI (steady-state binding curve); details: with Gαt333–350 [modified: biotin on the N-terminus (in the BLI assays), biotinylated Gαt333–350 coupled to a streptavidin biosensor

| Kd [1] [nM] | Kd [2] [nM] | Variant |
| --- | --- | --- |
| 1800 | 1900 | chain 1 F169R |
| > 10000 | > 10000 | chain 1 A173W |
